Source: patent publication EP4714976A1

What was measured:
[1] = biological target: extracellular domain of the FGFR2b protein (NP_075259.4) (UniProt P21802); experiment: phage ELISA
[2] = biological target: recombinant mouse FGFR2b (mouse) (UniProt P21803); experiment: ELISA, antibody 1ug/mL
FGFR1 (acro) = FGFR1 (acro) (UniProt P11362); experiment: ELISA, antibody 10 µg/mL
[3] = biological target: recombinant mouse FGFR2b (mouse) (UniProt P21803); experiment: BLI, antibody on AHC2 sensor

recombinant mouse FGFR2b (mouse), sequence (P21803 22-377): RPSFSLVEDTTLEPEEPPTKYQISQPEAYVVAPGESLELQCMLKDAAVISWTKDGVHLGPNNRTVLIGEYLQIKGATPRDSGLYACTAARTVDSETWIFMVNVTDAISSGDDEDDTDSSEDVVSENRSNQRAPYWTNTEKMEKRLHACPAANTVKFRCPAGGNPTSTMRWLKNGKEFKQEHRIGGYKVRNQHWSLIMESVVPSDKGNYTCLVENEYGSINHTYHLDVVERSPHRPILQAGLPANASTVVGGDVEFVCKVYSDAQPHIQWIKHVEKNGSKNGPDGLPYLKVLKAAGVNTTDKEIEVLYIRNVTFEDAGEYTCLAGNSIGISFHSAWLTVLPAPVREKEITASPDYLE
extracellular domain of the FGFR2b protein (NP_075259.4), sequence (P21802 other isoform, or with tags, fused parts or gaps): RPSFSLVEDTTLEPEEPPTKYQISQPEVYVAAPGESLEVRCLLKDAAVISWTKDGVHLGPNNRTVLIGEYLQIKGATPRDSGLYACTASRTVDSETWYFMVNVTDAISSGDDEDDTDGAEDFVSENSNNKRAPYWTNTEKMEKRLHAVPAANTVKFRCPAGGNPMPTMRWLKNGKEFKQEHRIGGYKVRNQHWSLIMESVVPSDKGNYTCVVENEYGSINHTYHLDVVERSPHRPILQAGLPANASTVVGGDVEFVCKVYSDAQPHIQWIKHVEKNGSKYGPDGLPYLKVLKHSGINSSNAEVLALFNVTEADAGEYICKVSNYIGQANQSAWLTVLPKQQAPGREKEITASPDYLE
FGFR1 (acro), sequence (P11362 22-376): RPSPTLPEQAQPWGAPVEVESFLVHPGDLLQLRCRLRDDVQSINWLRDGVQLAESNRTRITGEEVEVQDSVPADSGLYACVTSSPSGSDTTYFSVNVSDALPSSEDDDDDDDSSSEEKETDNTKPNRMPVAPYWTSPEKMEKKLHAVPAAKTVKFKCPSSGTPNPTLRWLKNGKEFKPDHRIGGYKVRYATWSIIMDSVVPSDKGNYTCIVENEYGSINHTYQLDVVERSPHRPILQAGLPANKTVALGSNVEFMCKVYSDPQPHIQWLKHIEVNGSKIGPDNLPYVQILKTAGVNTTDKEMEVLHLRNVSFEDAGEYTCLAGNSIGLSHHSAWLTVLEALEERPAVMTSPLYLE

Binder | OD (450 nm) value [1] | OD (450 nm) value [2] | OD (450 nm) value (FGFR1 (acro)) | Kd [3] | koff [3] | kon [3]
3C7 scFv displayed on phage (scFv) scFv: EIQLQQSGAELVKPGASVKMSCKASGYIFRNYYIHWVKRTPGQGLEWIGAIYPDNGDTSYNQRFKVKATLTADTSSSTAYMQLSSLTSEDSAVYYCARAFTYWGQGTTLTVSSGGGGSGGGGSGGGGSDIQMIQSPASLSASVGETVTITCGASENIYGALNWYQRKQGKSPQLLIYGATNLADGMSSRFSGSGSGRQYSLKISSLHPDDVATYYCQNVLSTPYTFGGGTKLEIK | 2.02 | – | – | – | – | –
3B7 scFv displayed on phage (scFv) scFv: EVQLQQSGAELVKPGASVKMSCKASGYTFRYYNMHWVKRTPGQGLEWIGLIYPDNGDTSYNQKFKGKATLTADTSSSTAYMQLSSLTSEDSAVYYCARGGFDYWGQGTTLTVSSGGGGSGGGGSGGGGSDIQMTQSPASLSASVGETVTITCGASENIYGALNWYQRKQGKSPQLLIYGATNLADGMSSRFSGSGSGRQYSLKISSLHPDDVATYYCQNVLSTPYTFGGGTKLELK | 2.03 | – | – | – | – | –
3C9 scFv displayed on phage (scFv) scFv: EIQLQQSGAELVKPGASVKMSCKASGYIFRYYNMHWVKRTPGQGLEWIGLIYPDNGDTSYNQKFKGKATLTADTSSSTAYMQLSSLTSEDSAVYYCARGGLDYWGQGTTLTVSSGGGGSGGGGSGGGGSDIQMIQSPASLSASVGETVTITCGASENIYGALNWYQRKQGKSPQLLIYGATNLADGMSSRFSGSGSGRQYSLKISSLHPDDVATYYCQNVLSTPYTFGGGTKLEIK | 2.08 | – | – | – | – | –
2B1 scFv-Fc (Fc fusion) EVQLQQSGAELVKPGASVKMSCKASGYTFASYNLHWVKQTPGQGLEWIGLIYPENGDTSYNQKFKGKATLTADKSSSTAYIQLSSLTSEDSAVYFCARGGFDYWGQGTSLTVSSGGGGSGGGGSGGGGSDIQMIQSPASLSVSVGETVTITCRASENIYSNLAWYQQKQGKSPQLLVYNAKTLADGVPSRFSGSGSGTQYSLKINSLQPEDFGSYYCQHFWSTPYTFGGGTKLEIKESKYGPPCPPCPAPEAAGGPSVFLFPPKPKDTLMISRTPEVTCVVVDVSQEDPEVQFNWYVDGVEVHNAKTKPREEQFNSTYRVVSVLTVLHQDWLNGKEYKCKVSNKGLPSSIEKTISKAKGQPREPQVYTLPPSQEEMTKNQVSLTCLVKGFYPSDIAVEWESNGQPENNYKTTPPVLDSDGSFFLYSKLTVDKSRWQEGNVFSCSVMHEALHNHYTQKSLSLSLG | – | 2.72 | 0.076 | 23 nM | 0.00126 s⁻¹ | 54800 M⁻¹ s⁻¹
3A12 scFv-Fc (Fc fusion) EVQLQQSGAELVKPGASVKMSCKASGYTFSFYNVHWVRQTPGQGLEWIGLIYPDNGDTSYNQKFKAKATLTADKSSSAAYMQLSSLTSEDSAVYYCARGGFDYWGQGTSLTVSSGGGGSGGGGSGGGGSDIVMTQSHKFMSTSVGDRVNITCKASQDVSTAVAWYQQKPGQSPKLLIYSASYRYSGVPDRFTGSGSGTDFTFTISSVQAEDLAVYYCQQHYSTPYTFGGGTKLEMKESKYGPPCPPCPAPEAAGGPSVFLFPPKPKDTLMISRTPEVTCVVVDVSQEDPEVQFNWYVDGVEVHNAKTKPREEQFNSTYRVVSVLTVLHQDWLNGKEYKCKVSNKGLPSSIEKTISKAKGQPREPQVYTLPPSQEEMTKNQVSLTCLVKGFYPSDIAVEWESNGQPENNYKTTPPVLDSDGSFFLYSKLTVDKSRWQEGNVFSCSVMHEALHNHYTQKSLSLSLG | – | 2.91 | 0.076 | 10.7 nM | 0.000485 s⁻¹ | 45400 M⁻¹ s⁻¹
